The RNAGym collection of RNA variant scans (doi:10.7554/elife.80360)

B1: HDV Ribozyme (parent)
chain: GGCCGGCAUGGUCCCAGCCUCCUCGCUGGCGCCGGCUGGGCAACAUUCCGAGGGGACCGUCCCCUCGGUAAUGGCGAAUGGGACCCA

Variants of: B1
Assay: self-cleavage, relative activity (ratio to wild type); higher = more cleavage; co-transcriptional

Variant	self-cleavage
GGCCGGCAUGGUCCCAGCCUCCUCGCUGGCGCCGGCUGGGCAACAUUCCGAGGGGACCGUCCCCUCGGUAAUAGCGGAUGGGACCCA [G73A A77G]	0.386
GGCCGGCAUGGUCCCAGCCUCCUCGCUGGCGCCGGCUGGGCAACAUUCCGAGGGGACCGUCCCCUCGGUAAUAGCGUAUGGGACCCA [G73A A77U]	0.189
GGCCGGCAUGGUCCCAGCCUCCUCGCUGGCGCCGGCUGGGCAACAUUCCGAGGGGACCGUCCCCUCGGUAAAGGCGAAAGGGACCCA [U72A U79A]	0.536
GGCCGGCAUGGUCCCAGCCUCCUCGCUGGCGCCGGCUGGGCAACAUUCCGAGGGGACCGUCCCCUCGGUAAAGGCGAAGGGGACCCA [U72A U79G]	0.361
GGCCGGCAUGGUCCCAGCCUCCUCGCUGGCGCCGGCUGGGCAACAUUCCGAGGGGACCGUCCCCUCGGUAGCGGCGAAUGGGACCCA [A71G U72C]	0.705
GGCCGGCAUGGUCCCAGCCUCCUCGCUGGCGCCGGCUGGGCAACAUUCCGAGGGGACCGUCCCCUCGGUAGAGGCGAAUGGGACCCA [A71G U72A]	0.573
GGCCGGCAUGGUCCCAGCCUCCUCGCUGGCGCCGGCUGGGCAACAUUCCGAGGGGACCGUCCCCUCGGUAACAGCGAAUGGGACCCA [U72C G73A]	0.407
GGCCGGCAUGGUCCCAGCCUCCUCGCUGGCGCCGGCUGGGCAACAUUCCGAGGGGACCGUCCCCUCGGUAACCGCGAAUGGGACCCA [U72C G73C]	0.208
GGCCGGCAUGGUCCCAGCCUCCUCGCUGGCGCCGGCUGGGCAACAUUCCGAGGGGACCGUCCCCUCGGUAAUCGCUAAUGGGACCCA [G73C G76U]	0.659
GGCCGGCAUGGUCCCAGCCUCCUCGCUGGCGCCGGCUGGGCAACAUUCCGAGGGGACCGUCCCCUCGGUAAUCGCCAAUGGGACCCA [G73C G76C]	0.501
GGCCGGCAUGGUCCCAGCCUCCUCGCUGGCGCCGGCUGGGCAACAUUCCGAGGGGACCGUCCCCUCGGUAAAGGCAAAUGGGACCCA [U72A G76A]	0.759
GGCCGGCAUGGUCCCAGCCUCCUCGCUGGCGCCGGCUGGGCAACAUUCCGAGGGGACCGUCCCCUCGGUAAUAGCGAAUGGGACCCC [G73A A87C]	0.643
GGCCGGCAUGGUCCCAGCCUCCUCGCUGGCGCCGGCUGGGCAACAUUCCGAGGGGACCGUCCCCUCGGUAAUAGCGAGUGGGACCCA [G73A A78G]	0.203
GGCCGGCAUGGUCCCAGCCUCCUCGCUGGCGCCGGCUGGGCAACAUUCCGAGGGGACCGUCCCCUCGGUAAUAGCGAUUGGGACCCA [G73A A78U]	0.106
GGCCGGCAUGGUCCCAGCCUCCUCGCUGGCGCCGGCUGGGCAACAUUCCGAGGGGACCGUCCCCUCGGUAAUCGCGAAUGCGACCCA [G73C G81C]	0.0292
GGCCGGCAUGGUCCCAGCCUCCUCGCUGGCGCCGGCUGGGCAACAUUCCGAGGGGACCGUCCCCUCGGUAUUGGCGAAUGGGACACA [A71U C85A]	1.08
GGCCGGCAUGGUCCCAGCCUCCUCGCUGGCGCCGGCUGGGCAACAUUCCGAGGGGACCGUCCCCUCGGUAUUGGCGCAUGGGACCCA [A71U A77C]	0.287
GGCCGGCAUGGUCCCAGCCUCCUCGCUGGCGCCGGCUGGGCAACAUUCCGAGGGGACCGUCCCCUCGGUAGUGUCGAAUGGGACCCA [A71G G74U]	0.658
GGCCGGCAUGGUCCCAGCCUCCUCGCUGGCGCCGGCUGGGCAACAUUCCGAGGGGACCGUCCCCUCGGUAAUCGCGAAUGGGACCGA [G73C C86G]	0.415
GGCCGGCAUGGUCCCAGCCUCCUCGCUGGCGCCGGCUGGGCAACAUUCCGAGGGGACCGUCCCCUCGGUAGUGGCGAAUGGCACCCA [A71G G82C]	0.151
GGCCGGCAUGGUCCCAGCCUCCUCGCUGGCGCCGGCUGGGCAACAUUCCGAGGGGACCGUCCCCUCGGUAAAGGCGAAUGGGACCUA [U72A C86U]	0.957
GGCCGGCAUGGUCCCAGCCUCCUCGCUGGCGCCGGCUGGGCAACAUUCCGAGGGGACCGUCCCCUCGGUAAUAGCGAAUGCGACCCA [G73A G81C]	0.425

Variant	self-cleavage
GGCCGGCAUGGUCCCAGCCUCCUCGCUGGCGCCGGCUGGGCAACAUUCCGAGGGGACCGUCCCCUCGGUAAUAGCGAAUGUGACCCA [G73A G81U]	0.18
GGCCGGCAUGGUCCCAGCCUCCUCGCUGGCGCCGGCUGGGCAACAUUCCGAGGGGACCGUCCCCUCGGUAACGGCGGAUGGGACCCA [U72C A77G]	0.229
GGCCGGCAUGGUCCCAGCCUCCUCGCUGGCGCCGGCUGGGCAACAUUCCGAGGGGACCGUCCCCUCGGUAACGGCGUAUGGGACCCA [U72C A77U]	0.285
GGCCGGCAUGGUCCCAGCCUCCUCGCUGGCGCCGGCUGGGCAACAUUCCGAGGGGACCGUCCCCUCGGUAGUGGCGAACGGGACCCA [A71G U79C]	0.339
GGCCGGCAUGGUCCCAGCCUCCUCGCUGGCGCCGGCUGGGCAACAUUCCGAGGGGACCGUCCCCUCGGUAUUGGAGAAUGGGACCCA [A71U C75A]	0.0739
GGCCGGCAUGGUCCCAGCCUCCUCGCUGGCGCCGGCUGGGCAACAUUCCGAGGGGACCGUCCCCUCGGUAAACGCGAAUGGGACCCA [U72A G73C]	0.628
GGCCGGCAUGGUCCCAGCCUCCUCGCUGGCGCCGGCUGGGCAACAUUCCGAGGGGACCGUCCCCUCGGUAAGGGCGAAUGGGCCCCA [U72G A83C]	0.332
GGCCGGCAUGGUCCCAGCCUCCUCGCUGGCGCCGGCUGGGCAACAUUCCGAGGGGACCGUCCCCUCGGUAAGGGCGAAUGGGACCCG [U72G A87G]	0.546
GGCCGGCAUGGUCCCAGCCUCCUCGCUGGCGCCGGCUGGGCAACAUUCCGAGGGGACCGUCCCCUCGGUAACGGCGAAUGUGACCCA [U72C G81U]	0.148
GGCCGGCAUGGUCCCAGCCUCCUCGCUGGCGCCGGCUGGGCAACAUUCCGAGGGGACCGUCCCCUCGGUAAGAGCGAAUGGGACCCA [U72G G73A]	0.707
GGCCGGCAUGGUCCCAGCCUCCUCGCUGGCGCCGGCUGGGCAACAUUCCGAGGGGACCGUCCCCUCGGUAACGGCGAUUGGGACCCA [U72C A78U]	0.249
GGCCGGCAUGGUCCCAGCCUCCUCGCUGGCGCCGGCUGGGCAACAUUCCGAGGGGACCGUCCCCUCGGUAAUAGCGAAUGGGGCCCA [G73A A83G]	0.511
GGCCGGCAUGGUCCCAGCCUCCUCGCUGGCGCCGGCUGGGCAACAUUCCGAGGGGACCGUCCCCUCGGUAGUGGCGAAUGUGACCCA [A71G G81U]	0.291
GGCCGGCAUGGUCCCAGCCUCCUCGCUGGCGCCGGCUGGGCAACAUUCCGAGGGGACCGUCCCCUCGGUAAUAGCGAAUGGGAGCCA [G73A C84G]	0.345
GGCCGGCAUGGUCCCAGCCUCCUCGCUGGCGCCGGCUGGGCAACAUUCCGAGGGGACCGUCCCCUCGGUAUUUGCGAAUGGGACCCA [A71U G73U]	0.237
GGCCGGCAUGGUCCCAGCCUCCUCGCUGGCGCCGGCUGGGCAACAUUCCGAGGGGACCGUCCCCUCGGUAAGGGCGAAUGGGACCGA [U72G C86G]	0.6
GGCCGGCAUGGUCCCAGCCUCCUCGCUGGCGCCGGCUGGGCAACAUUCCGAGGGGACCGUCCCCUCGGUAAGGGCGAAUGGGACCAA [U72G C86A]	1.16
GGCCGGCAUGGUCCCAGCCUCCUCGCUGGCGCCGGCUGGGCAACAUUCCGAGGGGACCGUCCCCUCGGUAAAGACGAAUGGGACCCA [U72A G74A]	0.373
GGCCGGCAUGGUCCCAGCCUCCUCGCUGGCGCCGGCUGGGCAACAUUCCGAGGGGACCGUCCCCUCGGUAAGGGCGAAUGGGACACA [U72G C85A]	0.653
GGCCGGCAUGGUCCCAGCCUCCUCGCUGGCGCCGGCUGGGCAACAUUCCGAGGGGACCGUCCCCUCGGUAAUCGCGAAUCGGACCCA [G73C G80C]	0.109
GGCCGGCAUGGUCCCAGCCUCCUCGCUGGCGCCGGCUGGGCAACAUUCCGAGGGGACCGUCCCCUCGGUAUUGGCGAAUGGGACCUA [A71U C86U]	1.02
GGCCGGCAUGGUCCCAGCCUCCUCGCUGGCGCCGGCUGGGCAACAUUCCGAGGGGACCGUCCCCUCGGUAUUGGCUAAUGGGACCCA [A71U G76U]	1.17

Variant	self-cleavage
GGCCGGCAUGGUCCCAGCCUCCUCGCUGGCGCCGGCUGGGCAACAUUCCGAGGGGACCGUCCCCUCGGUAAGGGCGAAUUGGACCCA [U72G G80U]	0.0963
GGCCGGCAUGGUCCCAGCCUCCUCGCUGGCGCCGGCUGGGCAACAUUCCGAGGGGACCGUCCCCUCGGUAAGGGCGAAGGGGACCCA [U72G U79G]	0.332
GGCCGGCAUGGUCCCAGCCUCCUCGCUGGCGCCGGCUGGGCAACAUUCCGAGGGGACCGUCCCCUCGGUAAUCGCGAAAGGGACCCA [G73C U79A]	0.302
GGCCGGCAUGGUCCCAGCCUCCUCGCUGGCGCCGGCUGGGCAACAUUCCGAGGGGACCGUCCCCUCGGUAAGGUCGAAUGGGACCCA [U72G G74U]	0.264
GGCCGGCAUGGUCCCAGCCUCCUCGCUGGCGCCGGCUGGGCAACAUUCCGAGGGGACCGUCCCCUCGGUAAAGGCGAAUGGAACCCA [U72A G82A]	0.295
GGCCGGCAUGGUCCCAGCCUCCUCGCUGGCGCCGGCUGGGCAACAUUCCGAGGGGACCGUCCCCUCGGUAAAGGCGAAUGGUACCCA [U72A G82U]	0.225
GGCCGGCAUGGUCCCAGCCUCCUCGCUGGCGCCGGCUGGGCAACAUUCCGAGGGGACCGUCCCCUCGGUAACGUCGAAUGGGACCCA [U72C G74U]	0.584
GGCCGGCAUGGUCCCAGCCUCCUCGCUGGCGCCGGCUGGGCAACAUUCCGAGGGGACCGUCCCCUCGGUAAAGGCGAAUGGGAGCCA [U72A C84G]	0.213
GGCCGGCAUGGUCCCAGCCUCCUCGCUGGCGCCGGCUGGGCAACAUUCCGAGGGGACCGUCCCCUCGGUAAAGGCGAAUGGGAUCCA [U72A C84U]	0.578
GGCCGGCAUGGUCCCAGCCUCCUCGCUGGCGCCGGCUGGGCAACAUUCCGAGGGGACCGUCCCCUCGGUAGUGGCCAAUGGGACCCA [A71G G76C]	0.73
GGCCGGCAUGGUCCCAGCCUCCUCGCUGGCGCCGGCUGGGCAACAUUCCGAGGGGACCGUCCCCUCGGUAGUGGCAAAUGGGACCCA [A71G G76A]	1
GGCCGGCAUGGUCCCAGCCUCCUCGCUGGCGCCGGCUGGGCAACAUUCCGAGGGGACCGUCCCCUCGGUAGUGGCGAAUCGGACCCA [A71G G80C]	0.271
GGCCGGCAUGGUCCCAGCCUCCUCGCUGGCGCCGGCUGGGCAACAUUCCGAGGGGACCGUCCCCUCGGUAAAGGAGAAUGGGACCCA [U72A C75A]	0.222
GGCCGGCAUGGUCCCAGCCUCCUCGCUGGCGCCGGCUGGGCAACAUUCCGAGGGGACCGUCCCCUCGGUAAUAGCCAAUGGGACCCA [G73A G76C]	0.516
GGCCGGCAUGGUCCCAGCCUCCUCGCUGGCGCCGGCUGGGCAACAUUCCGAGGGGACCGUCCCCUCGGUAAGGGCGGAUGGGACCCA [U72G A77G]	0.178
GGCCGGCAUGGUCCCAGCCUCCUCGCUGGCGCCGGCUGGGCAACAUUCCGAGGGGACCGUCCCCUCGGUAAGGGCGCAUGGGACCCA [U72G A77C]	0.128
GGCCGGCAUGGUCCCAGCCUCCUCGCUGGCGCCGGCUGGGCAACAUUCCGAGGGGACCGUCCCCUCGGUAACGGGGAAUGGGACCCA [U72C C75G]	0.166
GGCCGGCAUGGUCCCAGCCUCCUCGCUGGCGCCGGCUGGGCAACAUUCCGAGGGGACCGUCCCCUCGGUAAGGGCGAAUGGCACCCA [U72G G82C]	0.453
GGCCGGCAUGGUCCCAGCCUCCUCGCUGGCGCCGGCUGGGCAACAUUCCGAGGGGACCGUCCCCUCGGUAACGGCGAAUCGGACCCA [U72C G80C]	0.19
GGCCGGCAUGGUCCCAGCCUCCUCGCUGGCGCCGGCUGGGCAACAUUCCGAGGGGACCGUCCCCUCGGUAAAGGCGUAUGGGACCCA [U72A A77U]	0.322
